# Measurements taken from patent US20060008878A1 (UNIVERSITY OF CHICAGO, published 2006).
# B1: DsRed.M1 (other)
# chain: MDNTEDVIKEFMQFKVRMEGSVNGHYFEIEGEGEGKPYEGTQTAKLQVTKGGPLPFAWDILSPQFQYGSKAYVKHPADIPDYMKLSFPEGFTWERSMNFEDGGVVEVQQDSSLQDGTFIYKVKFKGVNFPADGPVMQKKTAGWEPSTEKLYPQDGVLKGEISHALKLKDGGHYTCDFKTVYKAKKPVQLPGNHYVDSKLDITNHNEDYTVVEQYEHAEARHSGSQ
# notes: Purified protein tested for its oligomeric state; also called monomeric DsRed variant; red fluorescent DsRed monomer
# Molecular target: the molecule itself
# Assay: nondenaturing SDS-PAGE or size exclusion chromatography (self-association)
# Method: For nondenaturing SDS-PAGE, one μg of each purified DsRed variant or wild-type DsRed was mixed with SDS-containing sample buffer on ice and immediately electrophoresed at 4° C. in a 10% polyacrylamide gel, followed by staining with Coomassie Blue. Additional aliquots of wild-type DsRed and DsRed variants were denatured by boiling prior to electrophoresis.
protein,measurement,value
B1,binding result,no binding
